These results are taken from patent US20210162009A1 (MEDICAL COLLEGE OF WISCONSIN, published 2021).

For the test, the target named is T1, wild-type CXCL12 (Homo sapiens (Human), UniProt P48061 22-89).
T1 construct: also called CXCL12WT; WT
In words: 125I-CXCL12 displacement from CXCR4. Here is the method: A) The affinity of CXCL12 variants for CXCR4 was determined by ¹²⁵I-CXCL12 displacement. […] C) Intracellular calcium mobilization of cells stimulated by 10 nM CXCL12 variants was measured in the presence or absence of the Gαi inhibitor, pertussis toxin (PTX). From Drury, PNAS, 2011.

T1 sequence (P48061 22-89 limits assumed): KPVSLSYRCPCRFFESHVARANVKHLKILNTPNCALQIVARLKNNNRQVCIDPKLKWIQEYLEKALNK

B1: CXC chemokine receptor 4 (CXCR4) (receptor, UniProt P61073 1-352, looked up)
chain: MEGISIYTSDNYTEEMGSGDYDSMKEPCFREENANFNKIFLPTIYSIIFLTGIVGNGLVILVMGYQKKLRSMTDKYRLHLSVADLLFVITLPFWAVDAVANWYFGNFLCKAVHVIYTVNLYSSVLILAFISLDRYLAIVHATNSQRPRKLLAEKVVYVGVWIPALLLTIPDFIFANVSEADDRYICDRFYPNDLWVVVFQFQHIMVGLILPGIVILSCYCIIISKLSHSKGHQKRKALKTTVILILAFFACWLPYYIGISIDSFILLEIIKQGCEFENTVHKWISITEALAFFHCCLNPILYAFLGAKFKTSAQHALTSVSRGSSLKILSKGKRGGHSSVSTESESSSFHSS
Consider B1, for which the Kd is 25 nM.
